Measurements as given in the supplement of paper PMC12636428.

System: Saccharomyces cerevisiae
Experiment: transcriptional activation domain activity (GFP:mCherry ratio, weighted mean of sorted bins, harmonized to initial dataset scale) (arbitrary fluorescence ratio units); higher = stronger transcriptional activation
Conditions: beta-estradiol 1 µM; induction time 4 h
Summary of the method: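 In diploid yeast carrying a GFP reporter, barcoded protein tiles fused to an estradiol-inducible synthetic transcription factor were integrated at the URA3 locus. Cultures diluted 1:5 into SC with 1 uM beta-estradiol were kept at 30 °C for 4 hours, then sorted by GFP:mCherry ratio into 8 bins before barcode sequencing. Tiles with under 50 reads were excluded. The activation activity reported here is the read-weighted mean of bin median fluorescence, averaged across barcodes and linearly rescaled to the initial dataset.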

| Sequence | transcriptional activation domain activity |
| --- | --- |
| LHPAPSSPSSTPRRRAAASTTATRTPAPAPTRTRRCSSSTKPPTASSSTPPRR | 57400 |
| LHQFDHFGYQQVFSVRWMKKHLHDVSGGVMLHVIKYMANILSSLLAPMGYFEM | 29600 |
| LHQRVHEQGLYDCHYSNYFIDLLRYLVLLGLFVVSFYKEYYLVSSCFLGCFWH | 57400 |
| LHQSGITHVYYLVENYSKQILLSHFLLNDISFRGWIMLLRNMSFRSIRHCQST | 54800 |
| LHRLHLARVTVDKEGKLVSTTNMTILNLWLVWRGPMREDRLTIEITLFQAFVG | 26400 |
| LHRYPIIRRGVALQTGKGKRKRMYQLIVVGNGDGLVGYGEGKNEDMGMAASKS | 28500 |
| LHSFRRQNGFIRLNIWDLNPSPKILQLYLLTQTIKRYIVLCLLLNLGFTIAQC | 60700 |
| LHYIYVVAISKSLSRLTLSYYTPAQLAMIGYFNLHIIWLKLMIPWRFFRLWSL | 43200 |
| LIAGWCCLLSASCGIFYCIFRAIAIYVPEFNCRVVLWCFAILKVISILCHAAV | 32700 |
| LIALPCLMAFATICFAFVAWKLYGEFAWTIYKHISADLRLKRRYLTYQIYIAL | 50200 |
| LIFCVHMTVILFVILFCYLNRGFVPMTNGKYFYADFRISNTWGFITSLTLVLN | 38100 |
| LIFSLKVLVMLICIIMIEFYITYAVAVGYIYAVAILEPFRPQLAVAFTWIRPV | 66600 |
| LIFTSVHFLVFNIGDLLGRYLCLVPQLLLWDASKLLTLSLLRTFFIPLFLACN | 38500 |
| LIGCCVVYSLLSSFLLIFQCIPVSLAWNRWDGEHHGHCTNLVPLTWITALLNV | 58900 |
| LIGMDQDVLGRWSQVIGEKGEGSLFSLALGPHQSNWLVLIRQACLLLLRSVAA | 51200 |
| LIHFFRLYRSGHGPIRMFFLHIQALYNLFNLIFSWFALANLWLTFSIIIRLVP | 70000 |
| LIHLMNIAQVVILFVHRFIFGVIPLFEIKTCSFWPLLVSLWHLNYIIIYSIMF | 51600 |
| LIHLMNIGQVSILFIHRFLYGLVPLFEITTCAFWPLLVSLWHLNFVLMYCIMF | 66000 |
| LIHVVNLAQVLAVLIHRTVYGLLPIFEVMSCAIFPFLVSMWHIAFLLMYTVML | 45700 |
| LIIDVFPPPPPLLSLFFFLSLSLFFSSSFLLFSFASLLSVQLWRGLIVLFVFL | 62900 |
| LIIPIIMDHLYPVPYMAFWDVSCFVNKVYFMQIVWLFNLPFLLHLLITLICYP | 68100 |

| Sequence | transcriptional activation domain activity |
| --- | --- |
| LIKKVKNEKQMYPILVCVLRLYDYVTHIMLIECQCEGIQSAFVSNQLSVKDTG | 52700 |
| LILARRKGDDRFRRIFMFTMCRLLVTRNHNPDLRRLVTEYLLNVDRFMILLLG | 59000 |
| LILEPPPAGGADGGPPTRSVPSSALRVGDLVLLEKNQRVPADCVLLRTSDAAG | 58800 |
| LILGLVHFLYVFFVQIFSHNFTLIPLALDCNFTWEYSVTFVWIGLHTLVAFPI | 54500 |
| LILILLIWRYCWYDGVIVNKIRAIGNDFCIWNPRMGEPLWTEYSHLVAKCLLF | 62700 |
| LILLRLLWPVTLYFFVSLMYSLLSLAFGVPFSRNFGHAGFLIYWMMSWCSMSA | 62400 |
| LILNCYWIVLVAFTFNMEVEYCKIVSVVGKLSSKFLGRVQVFLLLFMLMLFLV | 50600 |
| LILRMQVATLTKLWGLPPEFEIVCRDIWALHLSLLPDPPPPEPYYFHERGDGM | 34400 |
| LINYLLVLLVFRKWLKGHQVPLFVIMSYAWTRQLSFMDNVRRTNKRATLAMLR | 57200 |
| LIPIVVLNMYSLLMLLFIRGWFSYLIAVVSISGVLVLHMLYFLLQWRLKYILW | 65600 |
| LIPTEGGELALGGAPLEDEDESTSDEEETPKASFQARLERLRKRMDGRPIKDI | 26300 |
| LIRAVWSHFKADFNAIYLGRLLVLLAYQKRRPRPPTGYNLGHHADPGLHTFWA | 38200 |
| LIRIKDFTPNEVAAVVTYYSCRTNGMIPLTGRKWLGRIICRCLPLFDMLLFYR | 37500 |
| LISRLFAVKEVTKIQDINLEFDIACLWPLVPLSSWVMDYIVTVMQAWSLLFNR | 59400 |
| LITIPINYTVYIFVLFPFYVLSGTLCVGYYFHSYSPEFWLLRAWDFFFCFIPM | 74300 |
| LIVGGGATGAGTALDAASRGLKVALVERDDFSAGTSSKSTKLVHGGVRYLQKA | 51800 |
| LIVIRIVNPVIMYFFISCFYSLLSVAFQVPFNRYYGSSGFVIYWMMSWLAMCA | 55900 |
| LIVMRDRVEIIMLLWPIINIAFVILVGYDSDVTKSIRRLRQKYWSSLSVMAST | 68600 |
| LIVSWSGNYVVQHHSTRINLIDFMDSNYISHLCVYLGFSIADVCYQLTMLWMI | 77700 |
| LIVTALVWLFQASTEQFTFVALLMYRLKYPVRRVAWLLKFSAIQNLIPKFGFA | 61200 |
| LIVVCPCLNRAHPTCLKELQTDYICNMCNSIYQLKYIRFAQLLCFACHVLSLA | 84300 |

| Sequence | transcriptional activation domain activity |
| --- | --- |
| LIVVFAQSKIDSDEASVPVDEELNGVSLLVRILSDSAGRIYMIVTLELLLKRN | 53600 |
| LIVVLILAPHPSLFRMLLRHHLQTLQQPFYFVIHLLVTYTLTFCAFSSLIICA | 53700 |
| LIVVTLSWDVAVIITFLKHRITLRRLKMQSFLSLSFLFKMLIICIFRFFIGVC | 88200 |
| LIWSCKLIWAAYLDMYRYHIYVLVSFEVVALLTWILTLLYGVPNLINLVYHAY | 56300 |
| LIYNVCTFSLFWIVYRYNLLYVNNFRFDTSGLLFPRALDQLFTGIYVMAVCLI | 89400 |
| LIYQKLPRVLKRPGWNFHPAVALTFSILLFAAYPLICFFNILIAWSNEVSFHN | 54300 |
| LKALQLGCYNYFLLGGSCVSGPVGLLAGIIRQPLVLFYHFFSVALYAIWLRVA | 81200 |
| LKDEVMKIKPVQKQTRAGQRTRFKAVVIVGDSNGHVGLGIKTAKEVATAIRAA | 81600 |
| LKEKSLRILILNGLVRLIWTYLYRCQESPSTTTTKLENLLKYLFPPNRTSVYP | 44900 |
| LKGDHLDAVMVPKCESAADLHFVTDVIRHLRPDRHPSSTASASSSGSRREPVR | 33200 |
| LKHGMMRLDFLCKFSMYGGIERDNQFVKKATGVAFPCVFVLRCLKRPVLTESE | 55100 |
| LKIKLLVAWLWLLDTIHTCLLCSSNWRSLIVHYGDRRALDFIPTTTALGILFT | 34100 |
| LKIKLLVVWFWLLDAIHICMLCSSNWRDLIVHYGDRRTLDYIPPTTALAILFT | 79600 |
| LKIYLLNPLHMTRFADLLYQGAIMNRVIQPYESHLQYLLQWMCDYNLYGCGYI | 75800 |
| LKKHDVNALVTVICNFLICITMALCVVWDSELLPDCLFRVKLIYTLITLGFLC | 63400 |
| LKLLVCVLWCLDTFDFILNCNLLYLFLVTNYMNPLILIKRPPWSLVLHVAVTV | 53400 |
| LKNLMATIGLTRKVLFTGRQLEFYLAAVKLLATKDVFVKWTAIAKNFFMIVWV | 55500 |
| LKQMAGRDFEDILQCIMPVFEGLLPPPHDDLVMSLLFTLAFWHALAKLRLHTE | 56300 |
| LKSKALDAKVPIGLFTVLFFHPFLFPFCSLFPALFAPSFLFLFPLCFVTHFFL | 52400 |
| LKSKSVVSSRTAEEKKEISGALGEGMLQQLVVLLGQVPRIILLILKTNDLTRS | 52200 |
| LLAVDPNVWSHFDIVVLEFSRHYIHFHWKSLLWLVGPVVVWGWMVCTLLVWFI | 49400 |

| Sequence | transcriptional activation domain activity |
| --- | --- |
| LLAWGYVLFNPFAIYSLPYTVLFAFLSLSYLVLTFVLTLPSSLPFYHSKYWFQ | 66900 |
| LLCILLLVYFIYVALFLVSINTGVTLSGLNIQMSSKYSVYYLLIYHVFGFFWL | 58900 |
| LLCKKVVAFFQLLSESHVSGMRRLGVTQELLSLVTGLAHYLKLLIRICLQGAL | 72100 |
| LLDELMNQTKVLQETLDFSLVTPTPHHNDDYKIHGSAYPGGETPAQQHEKLSY | 35700 |
| LLECREDYINNNIRYCDDNKILLKSMIQMFVDLIPFSDKFLGLIFHIVPSFMH | 44700 |
| LLEELTQRLLQTDETPDSKVKDLSRFINMIILRFFATARRMAVFRALFNLLLH | 50300 |
| LLEMGLRWTLDAFGDSARMAGHIFHCLSNLEMTLPSYMYIQLLRSILKLPKTV | 31000 |
| LLESLGHDDSLEFFFVSGMLRYVRFGFWRRIIGYQFRNLRTQITRSIYYDWYR | 45500 |
| LLFFFFFFLLLFFLLFLLLRSRPPSSFSPASIVWPLRAGFGIPLPLFLLFFLP | 20800 |
| LLFFFFLFLSFSSLLHVWGLCLPISSFVGLWSLYLLFSPIPIVLPRVKLLFLA | 60200 |
| LLFFFSFFFVCFKYFPPFFFSSFLSFSFYCLSILTYPIHYPPPVFGISGSFFV | 51800 |
| LLFFSLSLFKKKYLPFILFFFFFYSSLFFFFYPFLFNFFSFFLIFFFFFSLQV | 34300 |
| LLFLLAHWHALAKLRMHTDSTLTLLDCATKSLGAALRDFQTKVCPAFNTHELR | 51400 |
| LLFLPYSCASFFFSLFSLFYFFLFYFFLLFSHIRIFISLSIHFSSSCFSTFLL | 58300 |
| LLFQSGVLRGYGGLLGFWIYLLLSSSFLLHLFYCCYIVLYLFVFVSWLLACLL | 51700 |
| LLFTFCLYPSFLPFLLLSPLFFFLSLSPFSFFSLFSLSLPLLSPSLFSTPFIH | 39600 |
| LLFTLLWLLFFFFFFLFLLFFFVVLVFVFFVVYFFILLLLFIVVDDEWVLLGL | 45300 |
| LLFVTDWALVGLGRFSESCIFFFLFSLWYNFCLHRFFISPTLYSSLTWHCVTS | 42800 |
| LLGLYMKMRFRTQEDFWRQIAILLRDLFVPDLQAETVVFFMRLLYNSNSMYKH | 24100 |
| LLGMFAQLAFADYVMTPSQARLALFVFERLLKLLRAAPYPCVRVAILQLLMWL | 45500 |
